Twelve molecules from paper PMC6350941 (Cell reports, 2019) can be followed below.

Where two headings read alike, the source gives them in different places.

One series addresses FANCD2 (chicken) (chicken, UniProt Q68Y81 1-1439). In words: EMSA. (In general: A gel shift assay detects complexes by their altered migration in electrophoresis.)
In a further series the target is T1, FANCI (chicken) (chicken, UniProt B0I564 1-1338).
T1 sequence: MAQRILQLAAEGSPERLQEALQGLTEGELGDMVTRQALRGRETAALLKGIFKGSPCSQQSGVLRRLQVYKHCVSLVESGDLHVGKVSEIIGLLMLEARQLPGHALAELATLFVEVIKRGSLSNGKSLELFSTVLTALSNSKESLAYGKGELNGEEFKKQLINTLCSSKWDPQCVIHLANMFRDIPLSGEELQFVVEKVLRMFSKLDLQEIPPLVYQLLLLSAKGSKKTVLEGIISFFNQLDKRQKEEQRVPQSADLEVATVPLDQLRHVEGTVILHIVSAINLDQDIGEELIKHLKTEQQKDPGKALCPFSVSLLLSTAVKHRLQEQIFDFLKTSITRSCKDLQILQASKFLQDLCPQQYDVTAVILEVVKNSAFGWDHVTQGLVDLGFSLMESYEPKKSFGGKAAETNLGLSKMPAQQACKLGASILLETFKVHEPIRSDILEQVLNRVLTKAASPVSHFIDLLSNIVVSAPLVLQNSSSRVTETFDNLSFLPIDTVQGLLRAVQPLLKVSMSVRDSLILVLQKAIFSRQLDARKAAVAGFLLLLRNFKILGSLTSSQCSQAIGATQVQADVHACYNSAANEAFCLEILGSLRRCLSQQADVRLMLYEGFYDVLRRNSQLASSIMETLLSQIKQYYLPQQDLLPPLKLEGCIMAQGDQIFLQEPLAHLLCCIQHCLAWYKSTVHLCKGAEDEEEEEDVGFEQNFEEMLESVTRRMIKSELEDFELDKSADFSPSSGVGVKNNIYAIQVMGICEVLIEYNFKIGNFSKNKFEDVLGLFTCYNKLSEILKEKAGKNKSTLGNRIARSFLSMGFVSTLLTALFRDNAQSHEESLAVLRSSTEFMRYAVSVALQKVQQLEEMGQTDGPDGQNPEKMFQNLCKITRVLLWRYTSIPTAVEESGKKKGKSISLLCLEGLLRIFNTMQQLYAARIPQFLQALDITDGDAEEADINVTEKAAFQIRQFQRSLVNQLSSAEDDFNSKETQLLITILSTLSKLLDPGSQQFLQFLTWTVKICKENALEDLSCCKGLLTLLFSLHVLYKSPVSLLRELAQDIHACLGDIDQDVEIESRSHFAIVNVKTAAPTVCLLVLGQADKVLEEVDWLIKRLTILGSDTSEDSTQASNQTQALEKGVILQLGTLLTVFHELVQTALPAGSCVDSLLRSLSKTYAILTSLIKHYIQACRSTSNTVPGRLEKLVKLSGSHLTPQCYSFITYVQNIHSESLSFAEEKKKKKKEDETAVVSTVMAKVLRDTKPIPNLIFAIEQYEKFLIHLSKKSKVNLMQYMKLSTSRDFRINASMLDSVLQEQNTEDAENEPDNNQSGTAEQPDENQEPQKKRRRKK
In words: EMSA.

The target of the next series is FANCI (human) (human, UniProt Q9NVI1 1-1328). Put plainly: EMSA.
FANCI (human), sequence (Q9NVI1 whole entry): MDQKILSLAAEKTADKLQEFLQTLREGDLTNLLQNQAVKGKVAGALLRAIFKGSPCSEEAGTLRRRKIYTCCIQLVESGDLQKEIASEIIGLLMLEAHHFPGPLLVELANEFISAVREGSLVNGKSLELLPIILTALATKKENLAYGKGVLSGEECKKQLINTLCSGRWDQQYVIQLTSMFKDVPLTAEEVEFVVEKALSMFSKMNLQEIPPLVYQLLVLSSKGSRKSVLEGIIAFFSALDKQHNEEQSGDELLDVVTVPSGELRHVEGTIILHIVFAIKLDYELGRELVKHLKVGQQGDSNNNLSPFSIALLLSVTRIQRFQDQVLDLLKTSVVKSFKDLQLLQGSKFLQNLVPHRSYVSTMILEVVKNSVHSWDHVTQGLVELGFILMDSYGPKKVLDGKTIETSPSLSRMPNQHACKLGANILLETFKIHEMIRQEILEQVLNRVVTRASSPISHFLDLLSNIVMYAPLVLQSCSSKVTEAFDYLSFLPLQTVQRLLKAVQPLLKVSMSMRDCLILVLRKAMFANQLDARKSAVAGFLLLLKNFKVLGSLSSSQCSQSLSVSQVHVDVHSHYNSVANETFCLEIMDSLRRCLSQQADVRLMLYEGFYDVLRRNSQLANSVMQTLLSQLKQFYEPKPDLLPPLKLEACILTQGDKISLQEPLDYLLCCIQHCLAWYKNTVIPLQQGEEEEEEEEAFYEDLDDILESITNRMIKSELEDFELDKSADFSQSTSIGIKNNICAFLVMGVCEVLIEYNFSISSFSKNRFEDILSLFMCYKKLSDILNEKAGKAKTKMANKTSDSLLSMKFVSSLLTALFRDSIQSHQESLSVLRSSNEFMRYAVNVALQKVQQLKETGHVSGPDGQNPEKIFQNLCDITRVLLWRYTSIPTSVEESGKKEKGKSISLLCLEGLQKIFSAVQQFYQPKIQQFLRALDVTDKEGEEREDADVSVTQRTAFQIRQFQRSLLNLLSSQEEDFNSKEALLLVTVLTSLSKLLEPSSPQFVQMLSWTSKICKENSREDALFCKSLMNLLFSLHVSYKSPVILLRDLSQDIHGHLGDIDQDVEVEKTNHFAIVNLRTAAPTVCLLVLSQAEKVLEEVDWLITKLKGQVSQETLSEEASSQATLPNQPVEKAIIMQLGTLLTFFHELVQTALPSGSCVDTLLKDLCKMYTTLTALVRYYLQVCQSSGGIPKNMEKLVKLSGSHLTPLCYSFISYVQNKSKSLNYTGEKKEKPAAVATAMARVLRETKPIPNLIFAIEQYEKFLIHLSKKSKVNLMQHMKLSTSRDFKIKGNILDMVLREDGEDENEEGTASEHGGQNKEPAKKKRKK
Series [1] deals with T2, FANCI (human);FANCD2 (human) (human;human, UniProt Q9NVI1;Q9BXW9 1-1328;1-1451, |). In words: EMSA.
T2 sequence (Q9NVI1 whole entry, chain 1 of 2): as the sequence (Q9NVI1 whole entry) above
T2 sequence (Q9BXW9 whole entry, chain 2 of 2): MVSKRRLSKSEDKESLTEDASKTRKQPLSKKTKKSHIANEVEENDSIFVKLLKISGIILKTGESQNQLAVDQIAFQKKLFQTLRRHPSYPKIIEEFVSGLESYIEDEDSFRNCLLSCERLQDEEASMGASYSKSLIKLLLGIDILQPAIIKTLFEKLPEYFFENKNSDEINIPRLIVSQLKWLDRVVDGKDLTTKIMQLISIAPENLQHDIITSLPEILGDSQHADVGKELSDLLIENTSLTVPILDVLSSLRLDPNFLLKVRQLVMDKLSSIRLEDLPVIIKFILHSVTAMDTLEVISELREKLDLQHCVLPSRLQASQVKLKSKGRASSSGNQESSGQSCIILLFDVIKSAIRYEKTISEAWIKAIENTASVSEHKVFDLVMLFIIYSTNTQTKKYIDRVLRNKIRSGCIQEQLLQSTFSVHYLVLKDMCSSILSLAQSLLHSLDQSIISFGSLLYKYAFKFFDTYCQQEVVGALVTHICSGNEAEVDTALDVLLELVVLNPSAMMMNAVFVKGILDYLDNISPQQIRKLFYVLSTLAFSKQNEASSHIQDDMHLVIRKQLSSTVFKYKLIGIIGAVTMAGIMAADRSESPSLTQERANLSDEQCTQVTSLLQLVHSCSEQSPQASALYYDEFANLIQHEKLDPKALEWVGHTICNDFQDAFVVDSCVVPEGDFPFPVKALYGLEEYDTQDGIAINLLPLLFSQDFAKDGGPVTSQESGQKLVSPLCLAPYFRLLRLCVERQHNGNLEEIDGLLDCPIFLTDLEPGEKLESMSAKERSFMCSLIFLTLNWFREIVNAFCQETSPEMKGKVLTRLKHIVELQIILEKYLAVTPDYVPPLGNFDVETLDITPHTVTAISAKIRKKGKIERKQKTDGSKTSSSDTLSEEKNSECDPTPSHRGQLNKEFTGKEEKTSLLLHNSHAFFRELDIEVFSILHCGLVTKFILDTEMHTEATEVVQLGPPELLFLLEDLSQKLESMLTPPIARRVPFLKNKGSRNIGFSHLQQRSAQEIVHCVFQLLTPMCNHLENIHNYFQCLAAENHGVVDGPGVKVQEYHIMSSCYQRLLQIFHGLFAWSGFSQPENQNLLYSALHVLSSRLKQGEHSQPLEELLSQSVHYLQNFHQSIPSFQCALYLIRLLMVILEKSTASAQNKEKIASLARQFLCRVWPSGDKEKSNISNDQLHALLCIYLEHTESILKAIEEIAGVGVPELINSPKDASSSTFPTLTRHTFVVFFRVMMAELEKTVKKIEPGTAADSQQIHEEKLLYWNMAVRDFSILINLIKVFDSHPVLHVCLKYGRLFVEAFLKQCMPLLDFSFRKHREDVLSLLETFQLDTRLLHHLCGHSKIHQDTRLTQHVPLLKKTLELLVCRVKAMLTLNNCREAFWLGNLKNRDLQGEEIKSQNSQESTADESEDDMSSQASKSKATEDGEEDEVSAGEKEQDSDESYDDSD
Series [2] has as its target FANCI (chicken);FANCD2 (chicken) (chicken;chicken, UniProt B0I564;Q68Y81 1-1338;1-1439, |). In words: EMSA.
Series [3] has as its target chicken FANCD2 (His-tagged) (chicken, UniProt Q68Y81 1-1439). In words: SEC.
Series [4] deals with T2, FANCI (human);FANCD2 (human). Put plainly: EMSA. The source holds these as a separate data set.
Series [5] shares this target. In words: EMSA. This is another data set of the same source.
Series [6] shares this target. Put plainly: EMSA. This is another data set of the same source.
The target is the same in series [7]. In words: EMSA. The source holds these as a separate data set.

FANCI (chicken);FANCD2 (chicken), sequence (Q68Y81 whole entry, one chain of several): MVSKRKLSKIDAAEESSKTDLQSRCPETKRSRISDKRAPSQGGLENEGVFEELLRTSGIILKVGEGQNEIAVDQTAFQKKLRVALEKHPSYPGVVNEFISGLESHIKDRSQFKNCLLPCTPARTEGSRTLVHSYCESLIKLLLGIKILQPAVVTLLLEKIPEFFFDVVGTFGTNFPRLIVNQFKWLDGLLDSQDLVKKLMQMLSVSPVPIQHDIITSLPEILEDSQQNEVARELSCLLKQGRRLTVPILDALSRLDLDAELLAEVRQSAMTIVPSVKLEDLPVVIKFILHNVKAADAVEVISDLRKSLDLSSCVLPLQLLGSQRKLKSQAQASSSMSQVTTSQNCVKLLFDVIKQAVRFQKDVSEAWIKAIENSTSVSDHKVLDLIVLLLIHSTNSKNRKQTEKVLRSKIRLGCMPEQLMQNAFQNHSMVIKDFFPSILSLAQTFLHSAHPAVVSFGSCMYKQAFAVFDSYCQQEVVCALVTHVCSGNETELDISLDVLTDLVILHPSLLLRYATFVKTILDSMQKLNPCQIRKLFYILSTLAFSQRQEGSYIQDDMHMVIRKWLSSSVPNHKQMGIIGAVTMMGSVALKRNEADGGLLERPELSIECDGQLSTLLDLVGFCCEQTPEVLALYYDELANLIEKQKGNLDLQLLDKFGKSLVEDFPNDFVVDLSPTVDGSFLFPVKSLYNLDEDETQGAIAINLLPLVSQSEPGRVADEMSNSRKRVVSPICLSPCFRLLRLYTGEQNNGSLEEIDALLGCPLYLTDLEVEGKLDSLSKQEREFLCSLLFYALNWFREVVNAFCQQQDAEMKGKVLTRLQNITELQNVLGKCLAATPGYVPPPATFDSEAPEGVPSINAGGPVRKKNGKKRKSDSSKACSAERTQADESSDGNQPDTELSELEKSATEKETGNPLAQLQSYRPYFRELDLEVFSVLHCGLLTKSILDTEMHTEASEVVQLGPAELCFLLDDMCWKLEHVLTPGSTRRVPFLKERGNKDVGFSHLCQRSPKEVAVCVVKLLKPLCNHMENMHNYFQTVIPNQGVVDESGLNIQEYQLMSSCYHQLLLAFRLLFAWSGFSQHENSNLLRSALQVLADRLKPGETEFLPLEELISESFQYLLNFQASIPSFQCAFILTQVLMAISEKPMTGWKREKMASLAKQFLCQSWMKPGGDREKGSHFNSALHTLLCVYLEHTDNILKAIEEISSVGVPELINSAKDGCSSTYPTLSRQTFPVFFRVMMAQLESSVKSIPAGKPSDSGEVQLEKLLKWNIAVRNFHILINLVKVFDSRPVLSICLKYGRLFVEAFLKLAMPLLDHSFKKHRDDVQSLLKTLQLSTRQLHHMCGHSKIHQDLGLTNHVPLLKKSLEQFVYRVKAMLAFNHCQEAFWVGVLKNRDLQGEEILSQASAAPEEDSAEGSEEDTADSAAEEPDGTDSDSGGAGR
FANCD2 (chicken), sequence (Q68Y81 whole entry): as the sequence (Q68Y81 whole entry, one chain of several) above
chicken FANCD2 (His-tagged), sequence (Q68Y81 whole entry): as the sequence (Q68Y81 whole entry, one chain of several) above

B1: ssRNA / ssRNA(G28) (ssRNA)
RNA: UGAUAAGAGGUCAUUUGAAUUCAUGGCUUAGAGCUUAAUUGCUGAAUCUGGUGCUGGGAU
Turning to B1, the binding result (with FANCD2 (chicken); with FANCI (chicken); with FANCI (human); in series [1]; in series [2]) was “binds” each time.

B2: dsRNA / dsRNA(G28) (dsRNA)
RNA 1: B1 RNA
RNA 2: AUCCCAGCACCAGAUUCAGCAAUUAAGCUCUAAGCCAUGAAUUCAAAUGACCUCUUAUCA
On to B2, for which the binding result (with FANCD2 (chicken); with FANCI (chicken); in the series with FANCI (human); in [2]) was “binds” each time.

B3: chicken FANCI (His-tagged) (natural protein, UniProt B0I564 1-1338, looked up)
chain: T1 sequence
Turning to B3, the binding result in [3] is “binds”.

B4: R-loop(G45) = R-loop(GGC) (mixed)
DNA 1: CATTGCATATTTAAAACATGTTGGAGTGAGTGCGTGGCTGAGATCGGGATTGCTGAGTCTGGTGCTTCAAATGACCTCTTATCAAGTGAC
RNA: CGUGGUCUGAGUCGUUAGGGCUAGAGUCGGUGCGUGAGUG
DNA 2: GTCACTTGATAAGAGGTCATTTGAACACTCACGCACCGACTCTAGCCCTAACGACTCAGACCACGTCCAACATGTTTTAAATATGCAATG
As to B4, the binding result in [4] was “binds”.

B5: R-loop(GAT) (mixed)
DNA 1: B4 DNA 1
RNA: AAAAAAAUAAAAAAAUAAAAAAAAUAAAAAAAUAAAAAAA
DNA 2: GTCACTTGATAAGAGGTCATTTGAATTTTTTTATTTTTTTATTTTTTTTATTTTTTTATTTTTTTTCCAACATGTTTTAAATATGCAATG
B5: the binding result in series [5] is “binds”.

B6: R-loop(G30_G-quad) (mixed)
DNA 1: CATTGCATATTTAAAACATGTTGGATTTAATTCAGGGCTTAGGGCTTGGGTACTGGGTCTAATACTTCAAATGACCTCTTATCAAGTGAC
RNA: B4 RNA
DNA 2: B4 DNA 2
For the molecule B6, the binding result in series [6] is on record as “binds”.

B7: D-loop(GGC) (structured_DNA)
DNA 1: B4 DNA 1
DNA 2: CGTGGTCTGAGTCGTTAGGGCTAGAGTCGGTGCGTGAGTG
DNA 3: B4 DNA 2
Turning to B7, in series [7], the binding result is “binds”.

B8: ssRNA(G48) (ssRNA)
RNA: GGAUGAGAGGGCAUGUGAGUGCGUGGCUGAGAGCGGGAUUGCUGAGUCUGGUGCUGGGAU
On to B8, for which, in [1], the binding result is “binds”.

B9: ssDNA / ssDNA(G28) (ssDNA)
DNA: TGATAAGAGGTCATTTGAATTCATGGCTTAGAGCTTAATTGCTGAATCTGGTGCTGGGAT
Turning to B9, in series [1], the binding result was “binds”.

B10: dsDNA / dsDNA(G28) (dsDNA)
DNA 1: B9 DNA
DNA 2: ATCCCAGCACCAGATTCAGCAATTAAGCTCTAAGCCATGAATTCAAATGACCTCTTATCA
For B10, the binding result in series [1] was “binds”.

B11: RNA:DNA hybrid (DNA:RNA)
DNA: B9 DNA
RNA: B2 RNA 2
Regarding B11, the binding result (with FANCD2 (chicken); in the series with FANCI (chicken); with FANCI (human); in [2]) was “binds” each time.

B12: ssDNA(G48) (ssDNA)
DNA: GGATGAGAGGGCATGTGAGTGCGTGGCTGAGAGCGGGATTGCTGAGTCTGGTGCTGGGAT
Consider B12, for which the binding result in series [1] was “binds”.
